From patent US20060084791A1 come the findings set out here.

What all share (test): cell-based or functional assay
For test [1], the target named is ecotropic receptor mCAT-1 (UniProt Q09143).
Test [2] has as its target human polytropic/xenotropic receptor encoded by the human RMC1 locus (human) (UniProt Q9UBH6).
Test [3] addresses polytropic/xenotropic receptor encoded by the Rmc1 locus of the NIH Swiss inbred NFS/N mouse (mouse (NIH Swiss; NIH 3T3 cells)) (UniProt Q9Z0U0).

Several values for one entry are separate records, joined by “and”; a condition that tells them apart may be missing. Identical values can stand only once. Where only a bound is given, the exact number is not on record here.

Chain of ecotropic receptor mCAT-1 (Q09143 whole entry): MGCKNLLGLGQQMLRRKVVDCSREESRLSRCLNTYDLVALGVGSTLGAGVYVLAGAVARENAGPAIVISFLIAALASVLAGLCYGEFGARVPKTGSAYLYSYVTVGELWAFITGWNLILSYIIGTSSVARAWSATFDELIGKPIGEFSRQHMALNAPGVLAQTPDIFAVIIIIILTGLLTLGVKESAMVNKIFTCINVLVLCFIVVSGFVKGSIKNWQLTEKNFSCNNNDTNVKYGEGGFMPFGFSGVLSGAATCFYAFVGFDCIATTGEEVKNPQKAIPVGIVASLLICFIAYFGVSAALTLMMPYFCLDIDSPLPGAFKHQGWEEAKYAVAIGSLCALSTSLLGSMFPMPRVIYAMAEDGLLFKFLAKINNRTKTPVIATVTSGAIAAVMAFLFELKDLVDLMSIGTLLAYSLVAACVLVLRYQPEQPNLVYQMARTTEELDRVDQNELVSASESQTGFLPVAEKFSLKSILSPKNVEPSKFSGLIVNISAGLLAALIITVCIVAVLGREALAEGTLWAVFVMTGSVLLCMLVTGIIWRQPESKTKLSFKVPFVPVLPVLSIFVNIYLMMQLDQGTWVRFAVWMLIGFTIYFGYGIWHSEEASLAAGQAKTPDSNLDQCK
Chain of polytropic/xenotropic receptor encoded by the Rmc1 locus of the NIH Swiss inbred NFS/N mouse (mouse (NIH Swiss; NIH 3T3 cells)) (Q9Z0U0 whole entry): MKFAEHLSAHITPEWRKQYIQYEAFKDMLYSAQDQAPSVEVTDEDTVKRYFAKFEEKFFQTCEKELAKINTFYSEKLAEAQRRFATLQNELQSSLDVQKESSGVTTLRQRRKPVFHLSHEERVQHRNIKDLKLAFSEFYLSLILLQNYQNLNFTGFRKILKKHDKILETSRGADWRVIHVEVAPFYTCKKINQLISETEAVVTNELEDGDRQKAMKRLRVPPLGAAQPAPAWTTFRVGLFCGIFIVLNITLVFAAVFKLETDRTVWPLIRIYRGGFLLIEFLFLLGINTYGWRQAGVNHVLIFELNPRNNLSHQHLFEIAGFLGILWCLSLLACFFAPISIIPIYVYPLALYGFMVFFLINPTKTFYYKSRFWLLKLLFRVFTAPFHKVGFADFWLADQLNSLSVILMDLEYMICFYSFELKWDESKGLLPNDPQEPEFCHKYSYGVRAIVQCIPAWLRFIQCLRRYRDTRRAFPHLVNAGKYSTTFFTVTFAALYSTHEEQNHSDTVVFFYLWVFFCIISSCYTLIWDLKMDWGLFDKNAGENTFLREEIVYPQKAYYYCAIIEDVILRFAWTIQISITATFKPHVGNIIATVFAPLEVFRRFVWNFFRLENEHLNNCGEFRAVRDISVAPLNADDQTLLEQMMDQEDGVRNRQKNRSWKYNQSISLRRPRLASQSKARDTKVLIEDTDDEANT
Chain of human polytropic/xenotropic receptor encoded by the human RMC1 locus (human) (Q9UBH6 whole entry): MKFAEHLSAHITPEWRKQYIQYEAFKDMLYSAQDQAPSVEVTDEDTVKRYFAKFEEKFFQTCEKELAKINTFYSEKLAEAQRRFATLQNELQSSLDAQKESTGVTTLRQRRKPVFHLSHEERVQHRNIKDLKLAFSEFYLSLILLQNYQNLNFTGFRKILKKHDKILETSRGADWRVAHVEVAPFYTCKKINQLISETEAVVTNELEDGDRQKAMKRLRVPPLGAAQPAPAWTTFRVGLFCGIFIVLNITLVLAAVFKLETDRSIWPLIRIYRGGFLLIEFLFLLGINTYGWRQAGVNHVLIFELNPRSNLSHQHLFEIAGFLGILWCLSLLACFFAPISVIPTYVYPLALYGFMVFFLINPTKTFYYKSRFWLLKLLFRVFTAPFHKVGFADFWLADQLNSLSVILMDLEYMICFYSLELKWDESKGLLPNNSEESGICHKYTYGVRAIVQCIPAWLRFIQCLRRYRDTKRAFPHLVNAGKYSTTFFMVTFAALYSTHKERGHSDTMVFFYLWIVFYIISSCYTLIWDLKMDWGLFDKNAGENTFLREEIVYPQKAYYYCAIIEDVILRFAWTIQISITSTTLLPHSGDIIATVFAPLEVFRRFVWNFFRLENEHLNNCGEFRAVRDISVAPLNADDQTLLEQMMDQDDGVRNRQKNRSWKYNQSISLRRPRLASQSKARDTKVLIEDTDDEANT

Regarding “Akv MLV envelope protein (ecotropic envelope) (from UniProt P03386 32-669)”, in test [1], the fold lowering of titer on PSI-2 cells against NIH 3T3 cells was 10000 fold; the titer of mini-virus on HeLa mCAT cells was 50000 cfu/mL and 30000 cfu/mL; the titer of mini-virus on NIH3T3 cells is 1.6e+06 cfu/mL and 800000 cfu/mL; the titer of mini-virus on PSI-2 cells (ecotropic receptor blocked by ecotropic envelope) is 170 cfu/mL and 120 cfu/mL.

Turning to “MCF 247 envelope protein (polytropic MLV MCF-247)”, in test [2], the Titer on 293 cells was determined as 2400 c.f.u./ml, the Titer on Human HeLa cells turned out to be 2 c.f.u./ml, the Titer on TE 671 cells transfected with MCF 247 (receptor blocked by MCF 247 envelope) came out at 16 c.f.u./ml and the titer on TE 671 (human) cells is 150 c.f.u./ml. The substance also gave a titer on NIH 3T3 (murine) cells in test [3] of 4.8e+06 c.f.u./ml.

As to “S/M Leader (SL3-2 envelope with the signal peptide of MCF 247)”, in test [2], the titer on HeLa cells came out at 0 cfu/mL and the titer on TE 671 cells turned out to be 5 cfu/mL. Also, in test [3], the titer on NIH 3T3/MCF 247 cells (polytropic receptor blocked) came to 12.5 cfu/mL, the titer on NIH 3T3 cells was 200000 cfu/mL and the titer on Psi-2 cells (ecotropic receptor blocked) was 100000 cfu/mL.

“S/M VR3 (SL3-2 envelope with the VR3 region of MCF 247) (from UniProt P03388 33-640)”: in test [2], the titer on HeLa cells was 250 cfu/mL and the titer on TE 671 cells turned out to be 22500 cfu/mL. In test [3], this substance yielded a titer on NIH 3T3/MCF 247 cells (polytropic receptor blocked) of 2.5 cfu/mL, a titer on NIH 3T3 cells of 500000 cfu/mL and a titer on Psi-2 cells (ecotropic receptor blocked) of 300000 cfu/mL.

For the substance “S/M VRA (SL3-2 envelope with the VRA segment of MCF 247)”, in test [2], the titer on HeLa cells amounted to 0 cfu/mL and the titer on TE 671 cells was 2.5 cfu/mL. In test [3], this substance showed a titer on NIH 3T3/MCF 247 cells (polytropic receptor blocked) of 2.5 cfu/mL, a titer on NIH 3T3 cells of 225000 cfu/mL and a titer on Psi-2 cells (ecotropic receptor blocked) of 400000 cfu/mL.

Take “S/M VRB (SL3-2 envelope with the VRB segment of MCF 247)”: in test [2], the titer on HeLa cells was 0 cfu/mL and the titer on TE 671 cells was determined as 5 cfu/mL. For the same substance, in test [3], the titer on NIH 3T3/MCF 247 cells (polytropic receptor blocked) came to 2.5 cfu/mL, the titer on NIH 3T3 cells was determined as 3e+06 cfu/mL and the titer on Psi-2 cells (ecotropic receptor blocked) was found to be 500000 cfu/mL.

“SL3-2 envelope mutant CR (C at 212, R at 213) (from UniProt P03388 33-640)” gave a titer on TE 671 (human) cells in test [2] of 12 c.f.u./ml. Moreover, the titer on NIH 3T3 (murine) cells in test [3] was found to be 2.4e+06 c.f.u./ml.

On to “SL3-2 envelope mutant GA (G at 212, A at 213) (from UniProt P03388 33-640)”, for which the titer on TE 671 (human) cells in test [2] worked out at 2800 c.f.u./ml. Also, in test [3], the titer on NIH 3T3 (murine) cells is 5.6e+06 c.f.u./ml.

Take “SL3-2 envelope mutant GI (G at 212, I at 213) (from UniProt P03388 33-640)”: in test [2], the Titer (cfu/mL) on TE 671 cells amounted to 450000 cfu/mL, the Titer on 293 cells is 200000 c.f.u./ml, the Titer on Human HeLa cells came out at 130 c.f.u./ml and the Titer on TE 671 cells transfected with MCF 247 (receptor blocked by MCF 247 envelope) came to 6000 c.f.u./ml. In test [2], this substance yielded a fold decrease of titer on TE 671 cells expressing MCF 247 envelope of 100 fold, a fold rise of titer on human cells against wild type SL3-2 of 100000 fold and a titer on TE 671 (human) cells of 440000 c.f.u./ml. For the same substance, in test [3], the Titer (cfu/mL) on NIH 3T3 cells was determined as 2e+06 cfu/mL and the titer on NIH 3T3 (murine) cells came out at 7.6e+06 c.f.u./ml.

In test [2], “SL3-2 envelope mutant GK (G at 212, K at 213) (from UniProt P03388 33-640)” came in with a titer on TE 671 (human) cells of 5600 c.f.u./ml. Moreover, the titer on NIH 3T3 (murine) cells in test [3] came out at 5.2e+06 c.f.u./ml.

In the case of “SL3-2 envelope mutant GT (G at 212, T at 213) (from UniProt P03388 33-640)”, in test [2], the Titer (cfu/mL) on TE 671 cells is 1500 cfu/mL and the titer on TE 671 (human) cells came out at 520 c.f.u./ml. For the same substance, in test [3], the Titer (cfu/mL) on NIH 3T3 cells was found to be 2e+06 cfu/mL and the titer on NIH 3T3 (murine) cells amounted to 8.4e+06 c.f.u./ml.

Take “SL3-2 envelope mutant GV (G at 212, V at 213) (from UniProt P03388 33-640)”: in test [2], the titer on TE 671 (human) cells came to 320000 c.f.u./ml. The same substance showed a titer on NIH 3T3 (murine) cells in test [3] of 3.6e+06 c.f.u./ml.

“SL3-2 envelope mutant LA (L at 212, A at 213) (from UniProt P03388 33-640)”: the titer on TE 671 (human) cells in test [2] came out at 5200 c.f.u./ml. Further, the titer on NIH 3T3 (murine) cells in test [3] was 1.1e+07 c.f.u./ml.

In test [2], “SL3-2 envelope mutant LI (L at 212, I at 213) (from UniProt P03388 33-640)” displayed a Titer on 293 cells of 12000 c.f.u./ml, a Titer on TE 671 cells transfected with MCF 247 (receptor blocked by MCF 247 envelope) of 68 c.f.u./ml, a fold decrease of titer on TE 671 cells expressing MCF 247 envelope of 100 fold and a titer on TE 671 (human) cells of 1200 c.f.u./ml. In test [3], the titer on NIH 3T3 (murine) cells worked out at 2.4e+06 c.f.u./ml.

For the substance “SL3-2 envelope mutant LV (L at 212, V at 213) (from UniProt P03388 33-640)”, in test [2], the titer on TE 671 (human) cells came out at 16000 c.f.u./ml. In test [3], this substance gave a titer on NIH 3T3 (murine) cells of 3.6e+06 c.f.u./ml.

“SL3-2 envelope mutant MA (M at 212, A at 213) (from UniProt P03388 33-640)” displayed a titer on TE 671 (human) cells in test [2] of 250000 c.f.u./ml. The same substance yielded a titer on NIH 3T3 (murine) cells in test [3] of 9.6e+06 c.f.u./ml.

On to “SL3-2 envelope mutant MI (M at 212, I at 213) (from UniProt P03388 33-640)”, for which, in test [2], the titer on TE 671 (human) cells is 28000 c.f.u./ml. The titer on NIH 3T3 (murine) cells in test [3] turned out to be 240000 c.f.u./ml.

Take “SL3-2 envelope mutant MV (M at 212, V at 213) (from UniProt P03388 33-640)”: in test [2], the Titer on 293 cells worked out at 240000 c.f.u./ml, the Titer on Human HeLa cells is 100 c.f.u./ml, the Titer on TE 671 cells transfected with MCF 247 (receptor blocked by MCF 247 envelope) was found to be 16000 c.f.u./ml and the fold decrease of titer on TE 671 cells expressing MCF 247 envelope was determined as 100 fold. For the same substance, in test [2], the fold rise of titer on human cells against the GI mutant was > 10 fold and the titer on TE 671 (human) cells came to 7.2e+06 c.f.u./ml. For the same substance, the titer on NIH 3T3 (murine) cells in test [3] was 9.6e+06 c.f.u./ml.

Take “SL3-2 envelope mutant RA (R at 212, A at 213) (from UniProt P03388 33-640)”: the titer on TE 671 (human) cells in test [2] is 4 c.f.u./ml. The substance also displayed a titer on NIH 3T3 (murine) cells in test [3] of 1e+07 c.f.u./ml.

In test [2], “SL3-2 envelope mutant RI (R at 212, I at 213) (from UniProt P03388 33-640)” yielded a Titer (cfu/mL) on TE 671 cells of 22.5 cfu/mL and a titer on TE 671 (human) cells of 24 c.f.u./ml. In test [3], the Titer (cfu/mL) on NIH 3T3 cells was found to be 3.25e+06 cfu/mL and the titer on NIH 3T3 (murine) cells is 6.4e+06 c.f.u./ml.

With “SL3-2 envelope polypeptide (wild type envelope protein of Murine Leukaemia Virus SL3-2) (from UniProt P03388 33-640)”, in test [2], the Titer (cfu/mL) on TE 671 cells stood at 4.75 cfu/mL, the Titer on 293 cells is < 2 c.f.u./ml, the Titer on Human HeLa cells was < 2 c.f.u./ml and the titer on HeLa cells stood at 0 cfu/mL. In test [2], the titer on TE 671 (human) cells was < 4 c.f.u./ml and the titer on TE 671 cells was < 2 c.f.u./ml.
